Results: publication PMC8325870, “SUMOylated non-canonical polycomb PRC1.6 complex as a prerequisite for recruitment of transcription factor RBPJ”

Target: RBPJ wt (UniProt P31266 1-526)
Test: EMSA; anti-Flag supershift; 10 mM Tris-HCl pH 7.5, 100 mM NaCl, 0.1 mM EDTA, 0.5 mM DTT, 4% glycerol, 10 ng poly(dI-dC), ~0.5 ng 32P-oligo, 2 or 4 ul reticulocyte lysate; temperature not stated
Details: protein: ivt; tags: Flag; label: 32P; 5' overhang 4 nt at both ends (CCTG on F, CTCG on R)

Sequence of RBPJ wt (P31266 whole entry): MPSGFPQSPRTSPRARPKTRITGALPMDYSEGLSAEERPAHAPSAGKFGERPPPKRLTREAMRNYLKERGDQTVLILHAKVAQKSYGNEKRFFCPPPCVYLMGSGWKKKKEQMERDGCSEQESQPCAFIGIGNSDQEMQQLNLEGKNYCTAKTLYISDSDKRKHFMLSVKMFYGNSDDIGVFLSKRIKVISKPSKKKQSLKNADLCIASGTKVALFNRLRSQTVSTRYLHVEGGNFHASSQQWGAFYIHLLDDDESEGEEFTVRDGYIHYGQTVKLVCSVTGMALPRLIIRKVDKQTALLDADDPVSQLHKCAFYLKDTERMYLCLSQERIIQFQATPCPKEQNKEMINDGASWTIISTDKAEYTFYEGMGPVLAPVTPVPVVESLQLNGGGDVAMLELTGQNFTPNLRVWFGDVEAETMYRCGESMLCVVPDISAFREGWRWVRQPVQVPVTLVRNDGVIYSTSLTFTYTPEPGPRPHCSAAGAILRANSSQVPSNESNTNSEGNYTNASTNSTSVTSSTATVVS

B1: FO-233F/FO-233R (EBV TP-1 promoter, two RBPJ sites) (dsDNA)
DNA 1: CCTGGAACTATTTTCCCACGGTGCCCTTCCGCCCATTTTCCCACGAGTCG
DNA 2: CTCGCGACTCGTGGGAAAATGGGCGGAAGGGCACCGTGGGAAAATAGTTC
Question: Does B1 bind?
Answer: Result: binds
